According to paper PMC6351565 (2019):
Where no end group is shown, it is not given here. [ ]: non-standard residue; d: D form. pT = C[C@@H](OP(=O)(O)O)[C@H](N)C(=O)O; pS = N[C@@H](COP(=O)(O)O)C(=O)O

B1: Site 2 peptide (pT340) (peptide)
chain: Ac-LSDSYSN[pT]LPVRKS-NH2
SMILES: CC(=O)N[C@@H](CC(C)C)C(=O)N[C@@H](CO)C(=O)N[C@@H](CC(=O)O)C(=O)N[C@@H](CO)C(=O)N[C@@H](Cc1ccc(O)cc1)C(=O)N[C@@H](CO)C(=O)N[C@@H](CC(N)=O)C(=O)N[C@H](C(=O)N[C@@H](CC(C)C)C(=O)N1CCC[C@H]1C(=O)N[C@H](C(=O)N[C@@H](CCCNC(=N)N)C(=O)N[C@@H](CCCCN)C(=O)N[C@@H](CO)C(N)=O)C(C)C)[C@@H](C)OP(=O)(O)O
B2: Site 4 peptide (pS366) (peptide)
chain: Ac-TLPRSS[pS]MAAGLEK-NH2
SMILES: CSCC[C@H](NC(=O)[C@H](COP(=O)(O)O)NC(=O)[C@H](CO)NC(=O)[C@H](CO)NC(=O)[C@H](CCCNC(=N)N)NC(=O)[C@@H]1CCCN1C(=O)[C@H](CC(C)C)NC(=O)[C@@H](NC(C)=O)[C@@H](C)O)C(=O)N[C@@H](C)C(=O)N[C@@H](C)C(=O)NCC(=O)N[C@@H](CC(C)C)C(=O)N[C@@H](CCC(=O)O)C(=O)N[C@@H](CCCCN)C(N)=O
B3: Site 3 peptide (pT360) (peptide)
chain: Ac-ATTENK[pT]LPRSSS-NH2
SMILES: CC(=O)N[C@@H](C)C(=O)N[C@H](C(=O)N[C@H](C(=O)N[C@@H](CCC(=O)O)C(=O)N[C@@H](CC(N)=O)C(=O)N[C@@H](CCCCN)C(=O)N[C@H](C(=O)N[C@@H](CC(C)C)C(=O)N1CCC[C@H]1C(=O)N[C@@H](CCCNC(=N)N)C(=O)N[C@@H](CO)C(=O)N[C@@H](CO)C(=O)N[C@@H](CO)C(N)=O)[C@@H](C)OP(=O)(O)O)[C@@H](C)O)[C@@H](C)O

Target: T1, 14-3-3θ (human, UniProt P27348 1-245)
T1 chain: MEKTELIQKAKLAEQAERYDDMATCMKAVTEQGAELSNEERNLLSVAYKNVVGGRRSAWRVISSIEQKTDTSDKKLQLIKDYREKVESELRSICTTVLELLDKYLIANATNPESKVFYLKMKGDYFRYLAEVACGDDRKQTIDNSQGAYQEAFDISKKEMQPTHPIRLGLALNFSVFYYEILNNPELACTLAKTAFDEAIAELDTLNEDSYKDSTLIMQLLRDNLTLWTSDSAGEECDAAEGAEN
Experiment: ITC

In order of rising Kd:
1. B1  5.5 µM
2. B3  15.5 µM
3. AQPKSL[pS]PPQSQSKLSDSYSN[pT]LPVRKS [Sites 1,2 peptide (pS325/pT340)]  16.2 µM
4. B2  16.5 µM
